# Starred links: 1 amine or outer side, 2 acyl side, 3 side chain; linkers in the order of their positions; H or OH if unused. Non-standard residues stand in square brackets, D forms with d. Groups on a side chain read outwards from the residue. No end group written: not given here. *: point of attachment. C18 diacid = O=C(O)CCCCCCCCCCCCCCCCC(=O)*; γGlu = O=C(O)[C@H](CCC(=O)[*:2])N[*:1]; εLys = N[C@@H](CCCCN[*:1])C(=O)[*:2]; AEEA = NCCOCCOCC(=O)O; Aib = CC(C)(N)C(=O)O; Ahx = NCCCCCC(=O)O
# T1: human GIP receptor (human, UniProt P48546 22-466)
# T1 sequence (looked up): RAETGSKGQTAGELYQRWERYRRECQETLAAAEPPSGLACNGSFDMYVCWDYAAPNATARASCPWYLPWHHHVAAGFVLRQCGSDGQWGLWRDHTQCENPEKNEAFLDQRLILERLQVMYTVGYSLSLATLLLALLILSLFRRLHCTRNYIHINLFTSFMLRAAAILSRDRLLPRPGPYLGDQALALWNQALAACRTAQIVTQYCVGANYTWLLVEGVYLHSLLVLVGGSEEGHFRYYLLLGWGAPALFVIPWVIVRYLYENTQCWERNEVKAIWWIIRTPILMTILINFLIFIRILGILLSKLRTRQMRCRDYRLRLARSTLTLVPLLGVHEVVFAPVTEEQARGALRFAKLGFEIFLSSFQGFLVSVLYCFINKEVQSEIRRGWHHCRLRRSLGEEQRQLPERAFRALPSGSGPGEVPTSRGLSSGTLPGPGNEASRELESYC
# T2: human neuropeptide Y2 receptor (human, UniProt P49146 1-381)
# T2 sequence (looked up): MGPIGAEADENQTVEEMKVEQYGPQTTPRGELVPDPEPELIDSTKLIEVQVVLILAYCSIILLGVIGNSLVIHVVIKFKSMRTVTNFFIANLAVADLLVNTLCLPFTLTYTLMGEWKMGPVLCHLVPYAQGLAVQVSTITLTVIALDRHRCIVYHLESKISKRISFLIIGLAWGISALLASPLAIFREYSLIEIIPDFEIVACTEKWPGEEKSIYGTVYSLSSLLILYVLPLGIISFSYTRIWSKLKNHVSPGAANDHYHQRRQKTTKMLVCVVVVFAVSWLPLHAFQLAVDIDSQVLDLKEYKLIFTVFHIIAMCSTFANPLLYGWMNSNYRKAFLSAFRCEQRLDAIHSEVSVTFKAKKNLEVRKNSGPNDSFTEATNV
# How the values were obtained:
# Experiment in all cases: cell-based or functional assay
# human GLP-1 receptor = human GLP-1 receptor (human, UniProt P43220 24-463)
# human GIP receptor = target: T1, human GIP receptor
# [1] = target: T2, human neuropeptide Y2 receptor
EC50 CreLuc hGLP1R 0.5% hP (human GLP-1 receptor) [nM],EC50 CreLuc hGLP1R 100% hP (human GLP-1 receptor) [nM],EC50 CreLuc hGIPR 0.5% hP (human GIP receptor) [nM],EC50 CreLuc hGIPR 100% hP (human GIP receptor) [nM],EC50 CreLuc hNPY2R 0.5% hP [1] [nM],EC50 CreLuc hNPY2R 100% hP [1] [nM],Binder
0.31,7.29,0.28,1.23,11.9,31.8,Y[Aib]EGTFTSDYSI[Aib]LEKQAQ[Aib]EFVEWLIK([AEEA-AEEA-γGlu-γGlu-γGlu-γGlu-C18 diacid])GGPSSGASLRHYYNWLTRQRY-NH2 [Compound 145]
0.15,7.18,0.14,1.43,17,95,Y[Aib]EGTFTSDYSI[Aib]LEKQAQ[Aib]AFVQWLIK([εLys-Glu-Glu-Glu-Glu-Glu-C18 diacid])GGPEEGASLRHYYNWLTRQRY-NH2 [Compound 155]
0.08,1.54,0.19,1.6,23.3,65.6,Y[Aib]EGTFTSDYSI[Aib]LEKQAQ[Aib]AFVQWLIKGGPSSGASLRHYYNWLTRQRY-NH2 (not fully specified (residue 28)) [Compound 147]
0.07,1.62,0.22,1.04,18.3,43.2,Y[Aib]EGTFTSDYSI[Aib]LEKQAQ[Aib]AFVQWLIK([Ahx-γGlu-γGlu-γGlu-γGlu-γGlu-γGlu-C18 diacid])GGPSSGASLRHYYNWLTRQRY-NH2 [Compound 139]
0.13,4.24,0.4,0.96,12.6,39.1,Y[Aib]EGTFTSDYSI[Aib]LEKQAQ[Aib]AFVEWLIK([εLys-γGlu-γGlu-γGlu-γGlu-γGlu-C18 diacid])GGPESGASLRHYYNWLTRQRY-NH2 [Compound 152]
0.31,8.35,0.27,1.65,16.7,62.7,Y[Aib]EGTFTSDYSI[Aib]LEKQAE[Aib]AFVEWLIK([AEEA-AEEA-γGlu-γGlu-γGlu-γGlu-C18 diacid])GGPSSGASLRHYYNWLTRQRY-NH2 [Compound 150]
0.19,5.09,0.13,0.81,18.3,28.4,Y[Aib]EGTFTSDYSI[Aib]LEKQAE[Aib]AFVQWLIK([εLys-γGlu-γGlu-γGlu-γGlu-γGlu-C18 diacid])GGPSEGASLRHYYNWLTRQRY-NH2 [Compound 138]
0.26,6.65,0.4,1.07,10.7,21.6,Y[Aib]EGTFTSDYSI[Aib]LEKQAQ[Aib]EFVQWLIK([εLys-γGlu-γGlu-γGlu-γGlu-γGlu-C18 diacid])GGPSEGASLRHYYNWLTRQRY-NH2 [Compound 154]
0.16,5.59,1.15,0.79,15.8,48.7,Y[Aib]EGTFTSDYSI[Aib]LEKQAQ[Aib]AFVQWLIK([AEEA-AEEA-γGlu-γGlu-γGlu-C18 diacid])GGPEEGASLRHYYNWLTRQRY-NH2 [Compound 144]
0.18,6.5,0.16,0.72,13.5,26.5,Y[Aib]EGTFTSDYSI[Aib]LEKQAE[Aib]AFVQWLIK([AEEA-AEEA-γGlu-γGlu-γGlu-γGlu-C18 diacid])GGPSEGASLRHYYNWLTRQRY-NH2 [Compound 156]
